Literature values, collected in article PMC5114699.

Target: Glu148 (UniProt position 148, MVLGREGPTVQ)

With “ClC-ec1 Cl-/H+ antiporter (H(+)/Cl(-) exchange transporter ClcA) (Escherichia coli)” as the substance, how does the pKa read?
Its pKa is 6.2.
